The text below walks through data of article PMC4852450, “SepG coordinates sporulation-specific cell division and nucleoid organization in Streptomyces coelicolor” (Open Biology, 2016).

The target in one test is T1, FtsZ–mCherry (S. coelicolor, UniProt P45500 1-399).
T1 construct: FtsZ, cell division scaffold protein of Streptomyces coelicolor; The FtsZ–mCherry construct is not described in the main text; source: S. coelicolor M145, expressed in living aerial hyphae
T1 sequence (looked up): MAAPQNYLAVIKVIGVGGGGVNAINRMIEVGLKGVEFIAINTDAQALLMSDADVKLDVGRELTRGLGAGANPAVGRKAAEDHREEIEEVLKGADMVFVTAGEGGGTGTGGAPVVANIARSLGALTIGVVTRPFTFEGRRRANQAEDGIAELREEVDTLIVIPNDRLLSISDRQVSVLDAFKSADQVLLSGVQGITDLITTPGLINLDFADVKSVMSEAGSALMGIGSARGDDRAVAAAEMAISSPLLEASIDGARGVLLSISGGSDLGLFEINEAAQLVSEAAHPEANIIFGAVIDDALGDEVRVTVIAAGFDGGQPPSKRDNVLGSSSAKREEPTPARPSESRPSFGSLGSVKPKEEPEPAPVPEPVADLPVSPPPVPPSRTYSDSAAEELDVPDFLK
As to the kind of experiment: FRET or BRET; acceptor photobleaching in living S. coelicolor M145 hyphae; donor eGFP, acceptor mCherry; post-bleach donor intensity relative to the pre-bleach intensity (set to 1). Particulars: partners not purified. (In general: BRET reads energy transfer from a luciferase to a nearby fluorophore.)

In a further test the target is T2, SepG–mCherry (S. coelicolor, UniProt Q9S2X3 1-94).
T2 construct: SepG (YlmG), SCO2078, 94 aa membrane protein of Streptomyces coelicolor; called full-length sepG in the methods; egfp of pGWS755 replaced by the gene for mCherry; also called YlmG; SCO2078; source: S. coelicolor M145, expressed from the ftsZ promoter region (pGWS791), in living aerial hyphae; not shown: mCherry, C-terminal, kept
T2 sequence (looked up): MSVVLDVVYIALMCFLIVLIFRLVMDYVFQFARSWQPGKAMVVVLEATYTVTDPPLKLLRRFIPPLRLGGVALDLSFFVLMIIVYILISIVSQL
The test is described as above. To be noted: partners not purified.

B1: SsgB–eGFP (natural protein, S. coelicolor, UniProt Q9L268 1-137, looked up)
chain: MNTTVSCELHLRLVVSSESSLPVPAGLRYDTADPYAVHATFHTGAEETVEWVFARDLLAEGLHRPTGTGDVRVWPSRSHGQGVVCIALSSPEGEALLEAPARALESFLKRTDAAVPPGTEHRHFDLDQELSHILAES
notes: SsgB, SCO1541, FtsZ-recruiting cell division protein of Streptomyces coelicolor; also called SCO1541; source: S. coelicolor M145, expressed in living aerial hyphae
For the molecule B1, the “donor fluorescence intensity after acceptor photobleaching, relative to before (FRET)” value is 1.08 with FtsZ–mCherry and 1.05 in the test with SepG–mCherry.
